Results: US20150368309A1 (SHIRE HUMAN GENETIC THERAPIES, published 2015)
“And” between values parts separate entries of the source, which are not always exact repeats. Equal entries are not always repeated.

Tests used:
[1] = biological target: Flt-1 receptor (plate based assay) (Homo sapiens (Human), UniProt P17948 27-758); experiment: plate based assay: Flt-1 captured by coated mouse monoclonal anti-Flt-1 antibody, bound PLGF detected with biotinylated goat anti-PLGF antibody and streptavidin-HRP, OD450
Flt-1 receptor (plate based assay), sequence (P17948 27-758 limits assumed): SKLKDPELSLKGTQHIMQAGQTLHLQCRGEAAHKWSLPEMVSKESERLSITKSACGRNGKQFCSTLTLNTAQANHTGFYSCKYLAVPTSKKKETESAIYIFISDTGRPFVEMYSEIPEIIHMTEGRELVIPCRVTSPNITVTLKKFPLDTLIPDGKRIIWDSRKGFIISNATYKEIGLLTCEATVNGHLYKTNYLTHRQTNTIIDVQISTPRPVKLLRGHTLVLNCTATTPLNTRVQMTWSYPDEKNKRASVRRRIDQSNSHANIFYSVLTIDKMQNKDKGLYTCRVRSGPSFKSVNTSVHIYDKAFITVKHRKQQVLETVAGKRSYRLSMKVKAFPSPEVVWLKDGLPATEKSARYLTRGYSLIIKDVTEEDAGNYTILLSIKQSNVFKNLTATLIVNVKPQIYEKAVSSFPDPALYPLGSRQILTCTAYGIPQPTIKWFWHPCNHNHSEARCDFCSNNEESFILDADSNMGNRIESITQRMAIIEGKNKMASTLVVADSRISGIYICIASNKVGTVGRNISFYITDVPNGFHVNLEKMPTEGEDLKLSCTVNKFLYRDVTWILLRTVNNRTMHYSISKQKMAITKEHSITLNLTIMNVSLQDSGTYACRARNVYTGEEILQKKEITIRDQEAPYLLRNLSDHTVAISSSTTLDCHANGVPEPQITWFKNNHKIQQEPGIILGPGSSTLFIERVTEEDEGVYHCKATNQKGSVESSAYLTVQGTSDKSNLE
Protocol: A plate based assay was performed to examine the binding of mutant PLGF protein to Flt-1. Briefly, plates were coated with a mouse monoclonal anti-Flt-1 antibody for capture. After washing and blocking steps, 250 ng/ml of Flt-1 receptor was incubated with WT PLGF (0-400,000 pg/ml) or PLGF C59A (0-40,000 pg/ml) in the plate. After further washing steps, bound WT or mutant PLGF were detected using a biotinylated goat anti-PLGF antibody and streptavidin-HRP immunodetection system. PLGF C59A appeared to bind Flt-1 with lower affinity than WT PLGF. (FIG. 1).

[2] = biological target: T1, human sFlt-1-Fc (human, UniProt P17948-2 27-687, limits assumed); experiment: SPR (Biacore T200), hsFlt-1-Fc captured by anti-hIgG Fc, PLGF as analyte, 1:1 model; first of the two unlabelled rows for Human WT-PLGF on Human sFlt-1
T1 construct: A bought fusion protein; also called hsFlt-1-Fc; hsFlt-1-Fc dimer; not shown: Fc part (captured and detected with anti-human IgG Fc)
T1 sequence (P17948 other isoform, or with tags, fused parts or gaps limits assumed): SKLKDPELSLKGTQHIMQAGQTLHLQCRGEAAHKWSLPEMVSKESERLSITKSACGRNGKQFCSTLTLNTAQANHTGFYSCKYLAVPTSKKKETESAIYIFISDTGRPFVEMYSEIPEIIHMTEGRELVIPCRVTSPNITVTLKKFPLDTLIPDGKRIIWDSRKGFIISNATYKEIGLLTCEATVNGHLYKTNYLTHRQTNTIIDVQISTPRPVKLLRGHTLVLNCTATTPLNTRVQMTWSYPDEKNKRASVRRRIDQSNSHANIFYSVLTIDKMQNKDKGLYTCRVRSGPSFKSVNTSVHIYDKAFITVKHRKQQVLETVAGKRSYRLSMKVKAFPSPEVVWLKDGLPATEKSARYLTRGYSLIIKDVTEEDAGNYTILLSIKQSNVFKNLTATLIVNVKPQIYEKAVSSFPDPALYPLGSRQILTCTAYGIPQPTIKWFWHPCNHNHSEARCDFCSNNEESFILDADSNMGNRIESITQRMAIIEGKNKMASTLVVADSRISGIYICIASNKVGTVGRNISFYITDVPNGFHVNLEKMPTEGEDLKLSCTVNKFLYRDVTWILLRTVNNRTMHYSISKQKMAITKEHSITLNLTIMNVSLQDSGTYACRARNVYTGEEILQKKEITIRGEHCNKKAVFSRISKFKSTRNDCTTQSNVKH

[3] = biological target: T2, mouse sFlt-1 (mouse, UniProt P35969 23-759, limits assumed); experiment: SPR (Biacore T200), msFlt-1 captured, PLGF as analyte, 1:1 model
T2 construct: also called msFlt-1
T2 sequence (looked up): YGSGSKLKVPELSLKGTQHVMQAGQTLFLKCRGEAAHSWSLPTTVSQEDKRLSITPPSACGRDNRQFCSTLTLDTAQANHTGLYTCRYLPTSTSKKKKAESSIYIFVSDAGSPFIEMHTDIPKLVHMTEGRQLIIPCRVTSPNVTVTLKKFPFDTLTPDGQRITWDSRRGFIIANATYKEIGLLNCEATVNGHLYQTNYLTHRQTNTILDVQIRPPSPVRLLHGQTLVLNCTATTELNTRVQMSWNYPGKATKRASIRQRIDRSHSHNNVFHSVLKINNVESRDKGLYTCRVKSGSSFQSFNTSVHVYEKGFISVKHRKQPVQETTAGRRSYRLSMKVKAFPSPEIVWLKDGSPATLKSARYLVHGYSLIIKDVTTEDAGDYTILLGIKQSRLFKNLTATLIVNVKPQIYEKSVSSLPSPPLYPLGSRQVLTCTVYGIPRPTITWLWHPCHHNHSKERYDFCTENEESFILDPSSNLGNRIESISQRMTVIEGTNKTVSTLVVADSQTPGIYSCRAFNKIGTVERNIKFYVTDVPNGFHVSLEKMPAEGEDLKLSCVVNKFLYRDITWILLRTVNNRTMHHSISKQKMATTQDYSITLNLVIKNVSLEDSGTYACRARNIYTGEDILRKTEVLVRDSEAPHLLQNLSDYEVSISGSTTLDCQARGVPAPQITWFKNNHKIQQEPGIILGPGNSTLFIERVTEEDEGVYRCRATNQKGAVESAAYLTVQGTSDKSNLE
Protocol: (§1) In the capture approach, goat anti-hIgG Fc polyclonal antibody (30 μg/mL in 10 mM acetate buffer, pH 5.0) was immobilized onto a CM5 chip by amine coupling. The immobilization level or surface density of anti-hIgG Fc antibody was controlled between 6000 to 8000 RU. For the kinetic study, sFlt-1-Fc was captured on the surface that was immobilized with the anti-hIgG Fc antibody, before each injection of PLGF variants. The capture level of sFlt-1-Fc (10 μg/mL) was controlled by varying contact time, 10 to 30 seconds, at flow rate 10 μL/min. PLGF variants, as analytes, were serially diluted in HBS-EP+ buffer from 50 to 0.03 nM, and injected to the surface that captured sFlt-1-Fc. The association time for each PLGF variants injection was 300 seconds at 30 μL/min and dissociation time was 600 seconds at the same flow rate. After each round of PLGF variants' injection, a regeneration of […] H3PO4 pH1.8 at 60 μl/min for 90 seconds was performed. The regeneration step effectively removes the complex of sFlt-1-Fc and PLGF variants from the surface that was immobilized with anti-hIgG Fc antibody. A stabilization step was applied for 90 seconds after regeneration.
(§2) The binding characteristics of PLGF variants, PLGF C59A, human WT PLGF and mouse WT PLGF, with msFlt-1 were studied in the mouse model. The same capture approach for hsFlt-1 was used for the msFlt-1.

[4] = biological target: T1, human sFlt-1-Fc; experiment: SPR (Biacore T200), hsFlt-1-Fc, 1:1 model; column 'KD (M) Average' of the two runs
[5] = biological target: T2, mouse sFlt-1; experiment: SPR (Biacore T200), msFlt-1 captured, 1:1 model; column 'KD (M) Average' of the two runs
Protocol: as §1, §2

[6] = biological target: T1, human sFlt-1-Fc; experiment: VEGF:sFlt1 inhibition ELISA: binding of human sFlt-1 Fc to immobilized human VEGF in the presence of PLGF, detected with HRP anti-human IgG Fc, normalized to binding without PLGF
Protocol: Inhibition of binding of VEGF to sFlt-1 by WT PLGF and PLGFC59A was also assessed by ELISA. The addition of recombinant human […] inhibited binding of recombinant VEGF to recombinant human sFlt-1 chimera (FIG. 6). Binding of human sFlt-1 Fc to immobilized human VEGF was quantified by immunodetection with HRP conjugated anti-human IgG Fc. Data were normalized to binding sFlt-1 Fc to VEGF in the absence of PLGF.

[7] = biological target: T1, human sFlt-1-Fc; experiment: SPR (Biacore T200), hsFlt-1-Fc captured by anti-hIgG Fc, PLGF as analyte, 1:1 model
Protocol: as §1
Two BIACORE experiment formats, single cycle kinetics and anti-Fc capture approach, were used to study binding characteristic of PLGF variants with hsFlt-1.

[8] = biological target: T1, human sFlt-1-Fc; experiment: isothermal titration calorimetry, PLGF C59A in the syringe titrated into sFlt-1-Fc in the cell, 25 C, PBS pH 7.4, model OneSites
Protocol: (§3) PLGF C59A and human sFlt-1-Fc (Cat#321-FL/CF, R&D System) were extensively dialyzed against PBS pH 7.4 buffer overnight. After dialysis, the proteins were concentrated using VIVISPIN 500 (10 kDa Cutoff, Cat# vs0601). The ratio of PLGF C59A in syringe to sFlt-1-Fc in the cell was about 10:1, with PLGF C59A concentration to be 77 μM, and the concentration of sFlt1-Fc to be 5.3 μM. Titrations were carried out using 2.0-μL injections for total 18 injections. An initial 2-μl injection was carried out but the data not included in the final data analysis. All titrations were done at 25° C. The binding isotherm was fitted with nonlinear regression on ORIGIN (GE MICROCAL, INC). The stoichiometry (N) of the binding interaction, the equilibrium association constant (KA) and enthalpy (ΔH) of the complex formation were calculated from the titration data.

[9] = biological target: T1, human sFlt-1-Fc; experiment: surface plasmon resonance (BIACORE), overlaid multi-cycle sensorgrams with 1:1 binding model fit; the sheet says only 'sFlt-1', neither species nor format is printed
[10] = biological target: T2, mouse sFlt-1; experiment: SPR, capture approach
Protocol: as §1, §2

[11] = biological target: T1, human sFlt-1-Fc; experiment: isothermal titration calorimetry, PLGF C59A (77 uM) titrated into sFlt-1-Fc (5.3 uM), 25 C, PBS pH 7.4
Protocol: as §3

[12] = biological target: T1, human sFlt-1-Fc; experiment: SPR (Biacore T200), hsFlt-1-Fc, 1:1 model; format of this run (capture or single cycle) not marked in the table
Protocol: In the single cycle kinetic approach, PLGF C59A at 50 μg/ml in 10 mM acetate buffer pH 5.0 was immobilized via ligand thiol coupling to ˜200 RU. sFlt-1-Fc dimer was serially diluted in HBS-EP+ running buffer from 30 to 1.875 nM. The sFlt-1-Fc dimer was injected from low to high concentration sequentially, without dissociation phase and regeneration step. The association step was 180 seconds per injection at 30 μL/min. At the end of the last injection, one single dissociation step was performed at 30 μL/min, for one hour to collect sufficient dissociation data.
Due to the nonspecific binding of hsFlt-1 on the reference cells and the poor regeneration conditions for PLGF C59A, a single cycle kinetic method were adopted by immobilizing PLGF C59A vial thiol coupling, and injecting hsFlt-1 as analyte. In the single cycle kinetic approach, PLGF C59A was immobilized onto CM4 chips through free cysteine residuals, C69 and C125, in PLGF C59A. Concentration of the Flt1-Fc dimer injected was varied from 0.37 to 30 nM. The binding characteristics, association rate constant (Ka), dissociation rate constant (Kd) and equilibrium dissociation constant (KD), are summarized in Table 6.

B1: wild-type human PLGF protein (ligand)
chain: LPAVPPQQWALSAGNGSSEVEVVPFQEVWGRSYCRALERLVDVVSEYPSEVEHMFSPSCVSLLRCTGCCGDENLHCVPVETANVTMQLLKIRSGDRPSYVELTFSQHVRCECRPLREKMKPERCGDAVPRR
notes: also called WT PLGF; Human WT-PLGF
EC50 (read off the curve) [1]: ~0.2 nM | kon [2]: 2.33e+06 M⁻¹ s⁻¹ | koff [3]: 0.000243 s⁻¹ and 0.000152 s⁻¹ | kon [3]: 2.73e+06 M⁻¹ s⁻¹ and 6.36e+06 M⁻¹ s⁻¹ | Kd [4]: 0.0405 nM | Kd [5]: 0.0565 nM | IC50 [6]: 4.59 nM | Kd [7]: 0.0259 nM and 0.0551 nM | koff [7]: 6.03e-05 s⁻¹ and 8.86e-05 s⁻¹ | kon [7]: 1.61e+06 M⁻¹ s⁻¹

B2: PLGF C59A (ligand)
chain: LPAVPPQQWALSAGNGSSEVEVVPFQEVWGRSYCRALERLVDVVSEYPSEVEHMFSPSAVSLLRCTGCCGDENLHCVPVETANVTMQLLKIRSGDRPSYVELTFSQHVRCECRPLREKMKPERCGDAVPRRHHHHHH
notes: Expressed in human fibrosarcoma cells, purified on a Nickel column, glycosylated; RC4 96.7% monomer; R3 97.1% monomer, formulated in 1 mM DTT; also called C59A PLGF; not shown: Tev protease cleavage site added at the C-terminus
Ka [8]: 2.03e+07 M⁻¹ | ΔH [8]: -12.8 kcal/mol | ΔS [8]: -9.4 cal/mol/deg | Kd [3]: 7.22 nM and 3.12 nM | koff [3]: 0.000496 s⁻¹ and 0.000633 s⁻¹ | kon [3]: 159000 M⁻¹ s⁻¹ and 87700 M⁻¹ s⁻¹ | Kd [9]: 0.572 nM | koff [9]: 0.000338 s⁻¹ | kon [9]: 592000 M⁻¹ s⁻¹ | fold weaker affinity than human WT PLGF with msFlt-1 [10]: ~90 fold | fold weaker affinity than mouse WT PLGF with msFlt-1 [10]: ~250 fold | Kd [11]: ~49 nM | Kd [12]: 1.61 nM and 0.886 nM | koff [12]: 0.000372 s⁻¹ and 0.000234 s⁻¹ | kon [12]: 231000 M⁻¹ s⁻¹ and 264000 M⁻¹ s⁻¹ | Kd [4]: 1.25 nM | Kd [5]: 5.17 nM | IC50 [6]: 28.3 nM

B3: mouse WT PLGF (ligand, UniProt P49764 19-158, looked up)
chain: VHSQGALSAGNNSTEVEVVPFNEVWGRSYCRPMEKLVYILDEYPDEVSHIFSPSCVLLSRCSGCCGDEGLHCVPIKTANITMQILKIPPNRDPHFYVEMTFSQDVLCECRPILETTKAERRKTKGKRKRSRNSQTEEPHP
Kd [3]: 0.0301 nM and 0.0109 nM | koff [3]: 0.000135 s⁻¹ and 9.69e-05 s⁻¹ | kon [3]: 4.49e+06 M⁻¹ s⁻¹ and 8.86e+06 M⁻¹ s⁻¹ | Kd [5]: 0.0205 nM
